Test results published in the supplement of paper PMC10567573.

B1: CROP (parent)
chain: VFGRGDNISDVSKFLEDDKWMEE
B2: SNURF (parent)
chain: QVPVVDFQAELRQAFLAETPRGG

Variants of: B1
Test: protein stability index of a GFP-peptide fusion (GPS, HEK-293T) (PSI 1-6); higher = more stable
Conditions: c terminus: native
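Note: lentivirally expressed fusions sorted by FACS into six bins by GFP to DsRed ratio, PSI derived from sequencing read proportions per bin multiplied by bin number.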

| Variant | protein stability index |
| --- | --- |
| VFGRGDNISDVSKFLEDDKWMEM | 4.68 |
| VFGRGDNISDVSKFLEDDKWMEF | 3.61 |
| VFGRGDNISDVSKFLEDDKWMEC | 4.1 |
| VFGRGDNISDVSKFLEHDKWMEE | 1.34 |
| VFGRGDNISDVSKFLEKDKWMEE | 2.83 |
| VFGRGDNISDVSKFLESDKWMEE | 1.52 |
| VFGRGDNISDVSKFLEFDKWMEE | 3.45 |
| VFGRGDNISDVSKFLELDKWMEE | 1.29 |
| VFGRGDNIDDVSKFLEDDKWMEE | 2.12 |
| VFGRGDNIKDVSKFLEDDKWMEE | 1.62 |
| VFGRGDNISDVSKFLEDDKWHEE | 2.25 |
| VFGRGDNISDVSKFLEDDKWFEE | 2.28 |
| VFGRGDNISDVSKFLEDDLWMEE | 1.89 |
| VFGRGDNISDVSKFLEDDFWMEE | 3.11 |
| VFGRGDNISDVSKFLEDDIWMEE | 2.28 |
| VFGRGDNISDVSKFLEDDNWMEE | 2.35 |
| VFGRGDNISDVSKFLEDDSWMEE | 3.53 |
| VFGRGDNISDVSKFVEDDKWMEE | 1.94 |
| VFGRGDNISDVSKFGEDDKWMEE | 2.8 |
| VFGRGDNISDVSKFCEDDKWMEE | 2.64 |
| VFGRGDNISDVSKELEDDKWMEE | 4.92 |

| Variant | protein stability index |
| --- | --- |
| VFGRGDNISDVSKTLEDDKWMEE | 4.42 |
| VFGRGDNISDVSKHLEDDKWMEE | 4.16 |
| VFGRGDNISDVSKCLEDDKWMEE | 3.8 |
| VFGRGDNISDVSKKLEDDKWMEE | 4.08 |
| VFGRGDNISDVSKFLEDDKDMEE | 4.04 |
| VFGRGDNISDVSKFLEDDKIMEE | 3.97 |
| VFVRGDNISDVSKFLEDDKWMEE | 1.51 |
| VFQRGDNISDVSKFLEDDKWMEE | 2.11 |
| VFGRSDNISDVSKFLEDDKWMEE | 3.13 |
| VFGRTDNISDVSKFLEDDKWMEE | 2.63 |
| VFGRMDNISDVSKFLEDDKWMEE | 1.14 |
| VFGRGDNPSDVSKFLEDDKWMEE | 2.03 |
| VFGRGDNESDVSKFLEDDKWMEE | 2.9 |
| MFGRGDNISDVSKFLEDDKWMEE | 1.84 |
| VFGRGDNISDVSKFLEDHKWMEE | 1.49 |
| VFGRGDNISDVSKFLEDPKWMEE | 3.66 |
| VFGRGDNISDVSKFLEDLKWMEE | 1.97 |
| VDGRGDNISDVSKFLEDDKWMEE | 3.87 |
| VHGRGDNISDVSKFLEDDKWMEE | 3.4 |
| VTGRGDNISDVSKFLEDDKWMEE | 3.29 |
| VEGRGDNISDVSKFLEDDKWMEE | 4.33 |

| Variant | protein stability index |
| --- | --- |
| VFGRGDNISIVSKFLEDDKWMEE | 1.99 |
| VFGRGDNISMVSKFLEDDKWMEE | 2.75 |
| VFGRGDNISDVSKFLCDDKWMEE | 1.46 |
| VFGRGDNISDVSCFLEDDKWMEE | 1.74 |
| VFGRGDNISDVSKFLEDDKWMTE | 4.94 |
| VFGRGDNISDVSKFLEDDKWMYE | 3.73 |
| VFGRGDNISDVSKFLEDDKWMVE | 4.25 |
| VFGRGDNISDFSKFLEDDKWMEE | 2.15 |
| VFGRGDNISDPSKFLEDDKWMEE | 3.27 |
| VFGRGDNISDNSKFLEDDKWMEE | 2.33 |
| VFGRGDIISDVSKFLEDDKWMEE | 2.21 |
| VFGRGDDISDVSKFLEDDKWMEE | 2.89 |
| VFGRGDPISDVSKFLEDDKWMEE | 1.35 |
| VFGRGDLISDVSKFLEDDKWMEE | 1.42 |
| VFGRGDVISDVSKFLEDDKWMEE | 1.53 |
| VFGRGDRISDVSKFLEDDKWMEE | 2.61 |
| VFGRGDNISDVIKFLEDDKWMEE | 2.32 |
| VFGRGQNISDVSKFLEDDKWMEE | 2.4 |
| VFGMGDNISDVSKFLEDDKWMEE | 2.77 |
| VFGIGDNISDVSKFLEDDKWMEE | 1.95 |

Variants of: B2
Test: as above
Conditions: c terminus: native

| Variant | protein stability index |
| --- | --- |
| QVPVVDFQAELRQAFHAETPRGG | 2.13 |
| QVPVVDFQAELRQAFAAETPRGG | 2.42 |
| QVPVVDFQAELRQAFWAETPRGG | 1.96 |
| QVPVVDFQAELRQAFPAETPRGG | 3.02 |
| QVPVVDFQAELRQAFFAETPRGG | 2.03 |
| QVPVVDFQAELRQAFYAETPRGG | 3.57 |
| QVPVVDFQAELRQAFLAETARGG | 3 |
| QVPVVDFQAELRQAFLAETWRGG | 3.74 |
| QVPVVDFQAELRQAFLAETIRGG | 3.38 |
| QVPVVDFQAELRQAFLAETKRGG | 2.19 |
| QVPVVDFQAELRQAFLAETFRGG | 2.27 |
| QVPVVDFQAELRQAFLAETCRGG | 1.59 |
| QVPVVDFQAELRQAFLAETYRGG | 3.23 |
| QVPVVCFQAELRQAFLAETPRGG | 4.03 |
| QVPVVNFQAELRQAFLAETPRGG | 3.2 |
| QVPVVRFQAELRQAFLAETPRGG | 2.21 |
| QVPVVEFQAELRQAFLAETPRGG | 4.69 |
| QVPVVDFQAELRQAFLKETPRGG | 3.45 |
| QVPVVDFQAELRQAFLIETPRGG | 3.76 |
| QVPVVDFQAELRQAFLSETPRGG | 2 |
| QVPVVDFQAELRQAFLASTPRGG | 2.02 |
| QVPVVDFQAELRQAFLAFTPRGG | 1.67 |

| Variant | protein stability index |
| --- | --- |
| QVPVVDFQAELRQAFLACTPRGG | 3.41 |
| QVPVVDFQAELRQAFLAPTPRGG | 3.59 |
| QVPVVDFQAMLRQAFLAETPRGG | 3.19 |
| QVPVVDFQAFLRQAFLAETPRGG | 4 |
| QVPVVDFQAQLRQAFLAETPRGG | 2.59 |
| QVPVVDFQAKLRQAFLAETPRGG | 2.48 |
| QVPVVDFQADLRQAFLAETPRGG | 2.15 |
| QVPVVDFQAALRQAFLAETPRGG | 1.34 |
| QVPVVDFQAPLRQAFLAETPRGG | 2.93 |
| QVPVVDFQAELRQAGLAETPRGG | 3.47 |
| QVPVVDFQAELRQAELAETPRGG | 2.82 |
| QVPVVDFQAELRQATLAETPRGG | 3.19 |
| QVPVVDFQAELRQAWLAETPRGG | 2.83 |
| QVPVVDFQAELRQAKLAETPRGG | 2.48 |
| QVPVVDFQAELRQARLAETPRGG | 1.95 |
| QVPVVDFQAELRQAYLAETPRGG | 1.94 |
| QVPVVDFQAELRQAFLAETPRHG | 2.79 |
| QVPVVDFQAELRQAFLAETPREG | 3.26 |
| QVPVVDFQAELRQAFLAETPRVG | 3.34 |
| QVPVVDFQAELRQAFLAETPRMG | 1.95 |
| QVPVVDFQAELRQAFLAETPRCG | 1.99 |
| QVPVVDFQAELRQAFLAETPRSG | 1.94 |

| Variant | protein stability index |
| --- | --- |
| QVPVVDFQAELRQAFLAETPRTG | 2.57 |
| QVPVVDFQAELRQAFLAETPRNG | 2.5 |
| QVPVVDFQAELRQAFLAETPRRG | 2.73 |
| QVPVVDFQAELRQAFLAETPRFG | 2.29 |
| QVPVVDFQAELRQAFLAETPRIG | 2.95 |
| QVPVVDFQAELRQAFLAETPRKG | 2.04 |
| QVPVVDFQAELRQAFLAETPRDG | 4.09 |
| QVPVVDFQAELRQAFLAETPRYG | 2.51 |
| QVPVVDFQAELRQAFLAETPRLG | 2.66 |
| QVPVVDFQAELRQAFLAETPLGG | 2.66 |
| QVPVVDFQAELRQAFLAETPPGG | 3.47 |
| QVPVVDFQAELRQAFLAETPAGG | 4.22 |
| QVPVVDFQAELRQAFLAETPNGG | 2.15 |
| QVPVVDFQAELRQAFLAETPKGG | 1.78 |
| QVPVVDFYAELRQAFLAETPRGG | 2.98 |
| QVPVVDFLAELRQAFLAETPRGG | 3.47 |
| QVPVVDFCAELRQAFLAETPRGG | 3.49 |
| QVPVVDFTAELRQAFLAETPRGG | 3.31 |
| QVPVVDFKAELRQAFLAETPRGG | 5.19 |
| QVPVVDFVAELRQAFLAETPRGG | 1.43 |
| QVPVTDFQAELRQAFLAETPRGG | 2.34 |
| QVPVHDFQAELRQAFLAETPRGG | 3.52 |

| Variant | protein stability index |
| --- | --- |
| QVPVIDFQAELRQAFLAETPRGG | 4.13 |
| QVPVADFQAELRQAFLAETPRGG | 2.08 |
| QVPVLDFQAELRQAFLAETPRGG | 3.11 |
| QVPVDDFQAELRQAFLAETPRGG | 1.7 |
| QVPVWDFQAELRQAFLAETPRGG | 3.5 |
| QVPVFDFQAELRQAFLAETPRGG | 2.39 |
| QVPVSDFQAELRQAFLAETPRGG | 4.05 |
| QVPVVDSQAELRQAFLAETPRGG | 3.5 |
| QVPVVDTQAELRQAFLAETPRGG | 4.49 |
| QVPVVDWQAELRQAFLAETPRGG | 2.9 |
| QVPVVDFQAELRQEFLAETPRGG | 3.09 |
| QVPVVDFQAELRQKFLAETPRGG | 3.05 |
| QVPVVDFQAELRQFFLAETPRGG | 2.58 |
| QVPVVDFQAELRQDFLAETPRGG | 2.99 |
| QVPVVDFQAELRQHFLAETPRGG | 2.3 |
| QVPVVDFQAELRQLFLAETPRGG | 3.5 |
| QVPVVDFQAELRQPFLAETPRGG | 2.12 |
| QVPVVDFQAELRMAFLAETPRGG | 2.42 |
| QVPVVDFQAELRCAFLAETPRGG | 1.71 |
| QVPVVDFQAELRDAFLAETPRGG | 2.15 |
| QVPVVDFQAELRAAFLAETPRGG | 2.68 |
| QVPVVDFQAELRYAFLAETPRGG | 2.73 |

| Variant | protein stability index |
| --- | --- |
| QVPVVDFQAELRGAFLAETPRGG | 4.32 |
| QVPVVDFQAELRSAFLAETPRGG | 3.53 |
| QVPVVDFQAELRQAFLAETPRGA | 2.38 |
| QVPVVDFQAELRQAFLAETPRGC | 1.66 |
| QVPVVDFQAELRQAFLAETPRGD | 3.97 |
| QVPVVDFQAELRQAFLAETPRGT | 3.93 |
| QVPVVDFQAELRQAFLAETPRGQ | 2.42 |
| QVPVVDFQAELRQAFLAETPRGL | 3.09 |
| QVPVVDFQAELRQAFLAETPRGY | 3.06 |
| QVPVVDFQAELRQAFLAETPRGS | 3.16 |
| QVPVVDFQAELRQAFLAETPRGK | 4.37 |
| QVPVVDFQAELRQAFLAETPRGV | 2.52 |
| QVPVVDFQAELRQAFLAETPRGN | 1.92 |
| QVPVVDFQAELRQAFLAETPRGH | 1.77 |
| QVPVVDFQAELRQAFLAETPRGI | 2.06 |
| QVPVVDFQAELRQAFLAETPRGW | 1.5 |
| QVPVVDFQAELRQAFLAETPRGM | 1.71 |
| QVPVVDFQAELRQAFLAETPRGF | 2.27 |
| QVPVVDFQAELRQAFLAETPRGE | 1.85 |
| QVPTVDFQAELRQAFLAETPRGG | 2.69 |
| QVPLVDFQAELRQAFLAETPRGG | 2.5 |
| QVPFVDFQAELRQAFLAETPRGG | 3.43 |

| Variant | protein stability index |
| --- | --- |
| QVPWVDFQAELRQAFLAETPRGG | 2.09 |
| QVPMVDFQAELRQAFLAETPRGG | 3.48 |
| QVPVVDFQAELRQAFLAEFPRGG | 2.29 |
| QVPVVDFQAELRQAFLAEKPRGG | 3.17 |
| QVPVVDFQAELRQAFLAERPRGG | 1.63 |
| QVPVVDFQAELRQAFLAECPRGG | 3.31 |
| QVPVVDFQAELRQAFLAEAPRGG | 3.59 |
| QVPVVDFQDELRQAFLAETPRGG | 2.47 |
| QVPVVDFQAELQQAFLAETPRGG | 3.27 |
| QVPVVDFQAELEQAFLAETPRGG | 2.54 |
| QVPVVDFQAELNQAFLAETPRGG | 2.92 |
| QVPVVDFQAELMQAFLAETPRGG | 3.51 |
| QVPVVDFQAELPQAFLAETPRGG | 2.89 |
| QVPVVDFQAELYQAFLAETPRGG | 3.86 |
| QVPVVDFQAEPRQAFLAETPRGG | 3.34 |
| QVPVVDFQAEARQAFLAETPRGG | 3.6 |
| QVPVVDFQAEKRQAFLAETPRGG | 4.47 |
| QVPVVDFQAESRQAFLAETPRGG | 2.27 |
| QVPVVDFQAEDRQAFLAETPRGG | 2.77 |
| QVPVVDFQAEIRQAFLAETPRGG | 2.03 |
| QVPVVDFQAERRQAFLAETPRGG | 3.83 |
| QVPVVDFQAEFRQAFLAETPRGG | 3.51 |
